# Experimental data taken from patent US20130171217A1, “ENZYMATIC PERACID GENERATION FOR USE IN SKIN CARE PRODUCTS” (E I DU PONT DE NEMOURS AND COMPANY, priority 2010, published 2013).
# B1: SEQ ID NO: 323: S54V variant of the aryl esterase from Mycobacterium smegmatis fused to hair binding domain HC263 via a flexible linker (protein)
# chain: MAKRILCFGDSLTWGWVPVEDGAPTERFAPDVRWTGVLAQQLGADFEVIEEGLVARTTNIDDPTDPRLNGASYLPSCLATHLPLDLVIIMLGTNDTKAYFRRTPLDIALGMSVLVTQVLTSAGGVGTTYPAPKVLVVSPPPLAPMPHPWFQLIFEGGEQKTTELARVYSALASFMKVPFFDAGSVISTDGVDGIHFTEANNRDLGVALAEQVRSLLGPGSGGAGSPGSAGGPGSPSAQSQLPDKHSGLHERAPQRYGPEPEPEPEPIPEPPKEAPVVIEKPKPKPKPKPKPPAHDHKNQKETHQRHAAGSGGGGSPHHHHHH
# B2: C277S: non-targeted C277S variant of the Thermotoga maritima perhydrolase, un-targeted control (protein, listed as Thermotoga maritima)
# chain: MAFFDLPLEELKKYRPERYEEKDFDEFWEETLAESEKFPLDPVFERMESHLKTVEAYDVTFSGYRGQRIKGWLLVPKLEEEKLPCVVQYIGYNGGRGFPHDWLFWPSMGYICFVMDTRGQGSGWLKGDTPDYPEGPVDPQYPGFMTRGILDPRTYYYRRVFTDAVRAVEAAASFPQVDQERIVIAGGSQGGGIALAVSALSKKAKALLCDVPFLCHFRRAVQLVDTHPYAEITNFLKTHRDKEEIVFRTLSYFDGVNFAARAKIPALFSVGLMDNISPPSTVFAAYNYYAGPKEIRIYPYNNHEGGGSFQAVEQVKFLKKLFEKG
# B3: C277S-HC263: C277S variant of Thermotoga maritima perhydrolase fused via a flexible linker to hair-binding domain HC263 (protein)
# chain: MAFFDLPLEELKKYRPERYEEKDFDEFWEETLAESEKFPLDPVFERMESHLKTVEAYDVTFSGYRGQRIKGWLLVPKLEEEKLPCVVQYIGYNGGRGFPHDWLFWPSMGYICFVMDTRGQGSGWLKGDTPDYPEGPVDPQYPGFMTRGILDPRTYYYRRVFTDAVRAVEAAASFPQVDQERIVIAGGSQGGGIALAVSALSKKAKALLCDVPFLCHFRRAVQLVDTHPYAEITNFLKTHRDKEEIVFRTLSYFDGVNFAARAKIPALFSVGLMDNISPPSTVFAAYNYYAGPKEIRIYPYNNHEGGGSFQAVEQVKFLKKLFEKGGPGSGGAGSPGSAGGPGSPSAQSQLPDKHSGLHERAPQRYGPEPEPEPEPIPEPPKEAPVVIEKPKPKPKPKPKPPAHDHKNQKETHQRHAAGSGGGGSPHHHHHH
# Legend:
# [1] = Two-step treatment of hair tresses, tress tensile strength
# Description: Medium brown hair was used in these examples. Stock hair swatches were custom made by International Hair Importers (Glendale, N.Y.). Each swatch had 1500 mg of 50% reversed hair, soft glued in the middle with glue thickness of 1 mm and width of 2 cm.
# Test-hair-sample consisted of a hair bundle of approximately 50 mg hair of 4 cm length, held together by a 1 mm thick, 2 mm wide and 5 mm long glue strip. A sheet of BYTAC® (TYPE VF-81, Saint-Gobain Performance Plastics, Wayne, N.J.) was attached to a polystyrene cover-plate, providing a TEFLON®-coated test-surface for mounting and treatment of hair. A strip of double-sided scotch tape was applied on the BYTAC® surface, closer to the top edge of the test plate. The glued side of the test-hair-sample was pressed down on the exposed side of the tape, making sure that the unglued hair strands are completely clear of the tape. The glued parts of the tress and exposed double-sided tape surface were covered with a strip of clear single-sided tape. Although the method is described for a single test-hair-tress, 4 tresses were used for each test condition and were placed side-by-side during the entire treatment.
# The test tress was wetted by tap water and the excess water was absorbed with a paper towel. The calculated volume of the enzyme formulation was applied and was worked in gently and evenly into hair strands with gloved fingers for ˜30 seconds and let the formulation soak in for the specified deposition time. The tress was then rinsed with tap water agitated through a peristaltic pump for 20 seconds, to completely remove the surfactant.
# Excess water was removed from the wetted tress from the previous step by absorption on a paper towel. The requisite volumes of the substrates (H2O2 and triacetin (TA)) were applied onto the test-tress. The mixture was rubbed into the hair strand firmly and evenly, with gloved finger for ˜1 min. The tress was left semi-covered for the specified treatment time.
# Test-hair was washed with a diluted surfactant solution by rubbing the surfactant into hair with enough vigor to foam, for one minute to remove all traced of oils and residues arising during tress preparation or from previous cycles. Hair was rinsed thoroughly with tap water, agitated through a peristaltic pump for 35 seconds, while gently opening tresses with gloved fingers to ascertain that all adherents (surfactant or moisturizer) are dislodged. Excess moisture was absorbed by pressing down the paper towel over the tress. This would mark the end of one cycle. Treatment cycles were repeated starting from the enzyme-deposition step until the desired number of cycles was reached.
# Two samples from each experiment were subjected to Tensile assay as described in Example 23, to determine the extent of hair-weakening.
# The following experiments followed the general method of treatment disclosed in Example 25. Solutions were made in 5% TWEEN®-20 surfactant in 50 mM citrate buffer at pH 6. […] H2O2 and triacetin, formulations were made according to Example 24, in 20% LUBRIDERM® lotion in 50 mM citrate buffer at pH 6. After application of the reagents, the treatment was allowed to continue for 24 hr, as in daily application. TWEEN®-20 (5% in 50 mM citrate buffer at pH 6) was used for the final surfactant wash. The treatment was repeated for 15 additional cycles, 16 days in all.
# The following experiments followed the general method of treatment disclosed in Example 26, except that after application of the reagents, the treatment was allowed to continue for shorter times per cycle rather than 24 hours per cycle.
# Enzyme solutions were made in 0.5% or 5% TWEEN®-20 surfactant in 50 mM citrate buffer at pH 6. […] H2O2 and triacetin, formulations were made according to Example 24, in 20% LUBRIDERM® lotion (Johnson & Johnson, New Brunswick, N.J.) in 50 mM citrate buffer at pH 6. After application of 400 μL each of the reagents, the treatment was allowed to continue for 20-40 min. […]
# [2] = Perhydrolase activity of targeted hydrolases, ABTS assay; assay type: biochemical
# Description: The ABTS assay was performed as follows: hair samples treated as described above were transferred to new 2-mL microcentrifuge tubes (Eppendorf Protein LoBind; Eppendorf North America, Hauppauge, N.Y.) To each tube was added 480 μL of PAH buffer ([…]), 14 μL of 39% hydrogen peroxide (Sigma 3410), and 6 μL triacetin (Sigma-Aldrich W200700). The perhydrolase reaction was allowed to proceed for 10 minutes at room temperature (˜22-25° C.). The reaction was stopped by diluting aliquots 10×, 100× and 1000× with 10 mM phosphoric acid. For detection 50 μL of 1 M acetic acid, 50 μL of 40 mg/mL potassium iodide, and 50 μL of 4 mM ABTS (2,2′-azino-bis(3-ethylbenzthiazoline-6-sulphonic acid; Sigma, St Louis, Mo.) were added to 50 μL of the above dilutions. Color was allowed to develop for 10 minutes and read in a spectrophotometer at 405 nm. Values from no-enzyme controls were subtracted to yield values attributable only to enzyme activity. A standard curve of OD 405 nm vs PAA concentration in ppm yielded a conversion factor of 8.75, such that an OD 405 nm of 1.0 corresponded to approximately 8.75 ppm PAA. This value was then multiplied by the appropriate dilution to arrive at the PAA concentration in the perhydrolase reaction.
# The perhydrolase activity of the enzymes targeted to hair with a variety of targeting domains produced as described in Example 32 was measured with the ABTS assay.
# [3] = 1500 μg/mL (E/H 6), deposition 5 min, 0.5 M H2O2, 1 M TA, 2 hr/cycle
molecule,measurement,setting,value
B1,TS,[1]; [3],0.28 N/mgH
same,Specific perhydrolase activity,[2]; triacetin at pH 7.5,270 µmol/mg/min
B2,TS,[1]; [3],2.84 N/mgH
B3,TS,"[1]; 750 μg/mL (E/H 3), 0.25 M H2O2, 0.25 M TA, 20 min/cycle, 16 cycles",2.64 N/mgH
same,TS,"[1]; 750 μg/mL (E/H 3), 0.25 M H2O2, 0.25 M TA, 24 hr/cycle, 16 cycles",1.51 N/mgH
same,TS,"[1]; 750 μg/mL (E/H 3), 0.5 M H2O2, 0.5 M TA, 20 min/cycle, 16 cycles",2.09 N/mgH
same,TS,"[1]; 750 μg/mL (E/H 3), 0.5 M H2O2, 0.5 M TA, 24 hr/cycle, 16 cycles",0.25 N/mgH
same,TS,"[1]; 750 μg/mL (E/H 3), 0.75 M H2O2, 1 M TA, 40 min/cycle",2.49 N/mgH
same,Predicted TS for 24 h/cycle,"[1]; 750 μg/mL, from 40 min/cycle",1.00 ^ N/mgH
same,TS,"[1]; 1500 μg/mL (E/H 5), 0.75 M H2O2, 1 M TA, 20 min/cycle",2.47 N/mgH
same,TS,[1]; [3],1.62 N/mgH
same,Predicted TS for 24 h/cycle,"[1]; 1500 μg/mL, from 20 min/cycle",0.97 ^ N/mgH
same,TS,"[1]; 1750 μg/mL (E/H 7), 0.25 M H2O2, 0.25 M TA, 20 min/cycle, 16 cycles",2.33 N/mgH
same,TS,"[1]; 1750 μg/mL (E/H 7), 0.25 M H2O2, 0.25 M TA, 24 hr/cycle, 16 cycles",0.77 N/mgH
same,TS,"[1]; 1750 μg/mL (E/H 7), 0.5 M H2O2, 0.5 M TA, 20 min/cycle, 16 cycles",1.90 N/mgH
same,TS,"[1]; 1750 μg/mL (E/H 7), 0.5 M H2O2, 0.5 M TA, 24 hr/cycle, 16 cycles",0.14 N/mgH
same,TS,"[1]; 1750 μg/mL (E/H 7), 0.75 M H2O2, 1 M TA, 40 min/cycle",1.65 N/mgH
same,Predicted TS for 24 h/cycle,"[1]; 1750 μg/mL, from 40 min/cycle, (d) predicted disintegration of hair",−0.13(d) N/mgH
same,TS,"[1]; 2500 μg/mL (E/H 10), 0.75 M H2O2, 1 M TA, 20 min/cycle",1.73 N/mgH
same,TS,"[1]; 2500 μg/mL (E/H 10), 0.75 M H2O2, 1 M TA, 40 min/cycle",1.67 N/mgH
same,TS,"[1]; 2500 μg/mL (E/H 10), 20 min/cycle, 1 cycle",3.44 N/mgH
same,TS,"[1]; 2500 μg/mL, 4 cycles",3.13 N/mgH
same,TS,"[1]; 2500 μg/mL, 8 cycles",2.34 N/mgH
same,TS,"[1]; 2500 μg/mL, 12 cycles",1.66 N/mgH
same,TS,"[1]; 2500 μg/mL, 16 cycles",0.95 N/mgH
same,Predicted TS for 24 h/cycle,"[1]; 2500 μg/mL, from 20 min/cycle, (d) predicted disintegration of hair in 16 × 24 h/cycle",−0.02(d) N/mgH
same,Predicted TS for 24 h/cycle,"[1]; 2500 μg/mL, from 40 min/cycle, (d) predicted disintegration of hair",−0.10(d) N/mgH
same,Specific perhydrolase activity,[2]; 1 m Na acetate at pH 5.5 instead of triacetin,The perhydrolase activity of the fusions of the Pseudomonas fluorescens hydrolase was assayed using 1 m Na acetate at pH 5.5 instead of triacetin at pH 7.5 Targeted Perhydrolases HC1121 (C277S-HC263; SEQ ID NO: 288) had no detectable perhydrolase activity with acetate as a substrate.
